Results on 1 molecule are retold here after patent US20210386829A1, “COMPOSITIONS AND METHODS FOR MODULATING CGRP SIGNALING TO REGULATE INNATE LYMPHOID CELL INFLAMMATORY RESPONSES” (The Broad Institute, Inc., priority 2018, published 2021).

Experiment [1] concerns lung ILCs. As to the kind of experiment: CellTrace Violet proliferation assay of sort-purified lung ILCs. Conditions: 3 days. The format is cell-based, mouse. The procedure: (§1) ILC in vitro culture. For in vitro experiments 5,000 ILCs/well were cultured in a 96 well round bottom plate with 20 ng/ml IL-7 (R&D Systems), 200 ng/ml IL-25 (R&D Systems) or 20 ng/ml, 2 ng/ml or 0.2 ng/ml IL-33 (BioLegend) with or without 1 μg/ml Neuromedin U (US Biological). In some cases purified CD90.2^+ lung cells were first labeled with CellTrace Violet (Thermo Fisher Scientific), then sorted as described above, and cultured for 3 days under the indicated conditions.
Proliferation assay. Lung cells were isolated and enriched for CD90.2 cells as described above, followed by labeling with CellTrace Violet (Cat #C34557; Thermo Fisher Scientific) according to manufacturer's instructions and subsequently stained with antibodies. After 3-day culture of sort-purified ILCs with 20 ng/ml IL-7 either alone or in combination with 200 ng/ml IL-33, 100 pM CGRP or 100 nM CGRP followed by staining, expression of CellTrace Violet in live (7AAD−) ILCs was analyzed on a BD LSRFortessa (BD Biosciences).

Experiment [2] relates to lung ILCs. As to the kind of experiment: culture of sort-purified lung ILCs with IL-7, IL-33 or IL-25+NMU with or without CGRP (qPCR, LegendPlex, intracellular cytokine staining). Format: cell-based, mouse. Conditions: short-term (8 hours) IL-33 alone, no CGRP. The procedure: as §1
Quantitative real-time PCR. RNA was isolated using RNeasy Plus Mini Kit (Qiagen) and reverse transcribed to cDNA with iScript cDNA Synthesis Kit (Bio-Rad). Gene expression was analyzed by quantitative real-time PCR on a ViiA7 System (Thermo Fisher Scientific) using TaqMan Fast Advanced Master Mix (Thermo Fisher Scientific) with the following primer/probe sets: Il5 (Mm00439646_m1), Il13 (Mm00434204_m1), Il17rb (Mm00444709_m1), Nmur1 (Mm04207994_m1), Nmur2 (Mm00600704_m1), Nmu (Mm00479868_m1) and Actb (Applied Biosystems). Expression values were calculated relative to Actb detected in the same sample by duplex qPCR.
Cytokine quantification. Cytokine concentrations in BAL fluid, lung and supernatant of in vitro ILC cultures were analyzed by the LegendPlex Mouse Th Cytokine Panel (13-plex) (BioLegend) according to the manufacturer's instructions and analyzed on a FACS Calibur (BD Biosciences).
Culture of innate lymphoid cells. Sort-purified innate lymphoid cells (ILCs) were cultured under sterile conditions in complete medium in a humidified incubator at 37° C. and 10% CO2. ILCs were plated at a density of 3,000-5,000 ILCs per well in a 96 well round-bottom plate in cell culture medium with 20 ng/ml IL-7. Depending on the experiment, different combinations of 200 ng/ml IL-25, 200 ng/ml IL-33, 1 ug/ml NMU and 100 nM CGRP were added either at start or after overnight culture with 20 ng/ml IL-7. […]
For flow cytometric analysis, lung cells were transferred into a 96 well V-bottom plate and stained with surface antibodies for 20 min at 4° C. in the dark. Cells were washed twice with DPBS containing 2% fetal bovine serum and transferred into 1.2 ml tubes for analysis by flow cytometry. For intracellular cytokine staining, cells were incubated in complete cell culture medium with 50 ng/ml phorbol 12-myristate 13-acetate (Sigma-Aldrich), 1 uM ionomycin (Sigma-Aldrich) and GolgiStop (Cat #554724; BD Biosciences) in a humidified incubator at 37° C. and 10% CO2. After 5 hours, cells were transferred into 96 well V-bottom plate, stained with Fixable Viability Dye eFluor 506 (Cat #65-0866-14; Thermo Fisher) and surface antibodies for 20 min at 4° C. in the dark and washed twice with DPBS containing 2% fetal bovine serum. Then, cells were incubated with BD Cytofix/Cytoperm Buffer (Cat #51-2090KZ; BD Biosciences) for 20 min, followed by a wash with BD Perm/Wash Buffer (Cat #51-2091KZ; BD Biosciences). Subsequently, cells were incubated with antibodies targeting intracellular proteins diluted in BD Perm/Wash Buffer for 20 min and after two wash steps, transferred into 1.2 ml tubes for analysis by flow cytometry. For ki67 staining, cells were stained for surface antibodies as described above, fixed with a solution of Fixation/Permeabilization Concentrate (Cat #00-5123-43; Invitrogen) and Fixation/Perm Diluent (Cat #00-5223-56; Invitrogen) for 20 min, washed with Permeabilization Buffer (Cat #00-8333-56; Invitrogen). Then, cells were incubated with ki67 antibody diluted in Permeabilization Buffer for 20 min, washed and transferred into FACS tubes. Cells were analyzed on a BD LSRFortessa (BD Biosciences) flow cytometer with 5 lasers (355 nm, 405 nm, 488 nm, 561 nm and 640 nm). Data was analyzed using FlowJo v10.5.0 software and cell populations were gated as described previously (Wallrapp 2017).
RNA isolation and cDNA synthesis. […]

B1: IL-33: alarmin cytokine which activates ILC2s and induces their proliferation; used as stimulus (protein, UniProt Q8BVZ5 1-266, looked up)
Interleukin-33: MRPRMKYSNSKISPAKFSSTAGEALVPPCKIRRSQQKTKEFCHVYCMRLRSGLTIRKETSYFRKEPTKRYSLKSGTKHEENFSAYPRDSRKRSLLGSIQAFAASVDTLSIQGTSLLTQSPASLSTYNDQSVSFVLENGCYVINVDDSGKDQEQDQVLLRYYESPCPASQSGDGVDGKKLMVNMSPIKDTDIWLHANDKDYSVELQRGDVSPPEQAFFVLHKKSSDFVSFECKNLPGTYIGVKDNQLALVEEKDESCNNIMFKLSKI
Turning to B1, the ILC2 proliferation entry in the experiment on lung ILCs [1] (IL-7+IL-33 vs IL-7 alone, absent CGRP) was “induced significant ILC2 proliferation”. Besides, in the experiment on lung ILCs [1] (IL-7+IL-33 without CGRP), the “IL-33-activated ILCs that divided at least once” value is “approximately 55%”. For the same molecule, the “frequency of IL-13-positive ILC2s (intracellular cytokine staining)” value in the experiment on lung ILCs [2] is ~13%.
